B1: Scp1 (protein)
chain: SYDKKADVTSLDEDLRQLRESKFSPEAIQNIKIWVYKSVLKEIAPPGDLLECLKDGTVLCKLANILYEADTGEANHISWKSSKMPFVQMDQISQFLSFSRKYGVPEDELFQTIDLFEKKDPAIVFQTLKSLSRYANKKHTDRFPVLGPQLSTKKPRPPVKSKPKHLQDGTGWSTFEYGYMKGASQATEGVVLGQRRDIV
B2: Scp1(1-180) 1-180 (protein)
chain: MSYDKKADVTSLDEDLRQLRESKFSPEAIQNIKIWVYKSVLKEIAPPGDLLECLKDGTVLCKLANILYEADTGEANHISWKSSKMPFVQMDQISQFLSFSRKYGVPEDELFQTIDLFEKKDPAIVFQTLKSLSRYANKKHTDRFPVLGPQLSTKKPRPPVKSKPKHLQDGTGWSTFEYGY

Columns and labels:
Assay in all cases: high-speed co-sedimentation
F-actin = F-actin (Saccharomyces cerevisiae, UniProt P60010)
[1] = target: F-actin (skeletal muscle) (Oryctolagus cuniculus, UniProt P68135)
F-actin (act1-102) = F-actin (act1-102) (Saccharomyces cerevisiae, UniProt P60010)

Binder | Kd (F-actin) [nM] | Kd [1] [µM] | Kd (F-actin (act1-102)) [µM]
B1 | 1300 | 2.1 | 7.9
B2 |  | 7.1 | 
